{
  "source": "paper PMC9965216",
  "target": "wild-type GroEL chaperonin (GroEL14) (E. coli) (UniProt P0A6F5)",
  "sequence (P0A6F5 whole entry, the tested form may be a part)": "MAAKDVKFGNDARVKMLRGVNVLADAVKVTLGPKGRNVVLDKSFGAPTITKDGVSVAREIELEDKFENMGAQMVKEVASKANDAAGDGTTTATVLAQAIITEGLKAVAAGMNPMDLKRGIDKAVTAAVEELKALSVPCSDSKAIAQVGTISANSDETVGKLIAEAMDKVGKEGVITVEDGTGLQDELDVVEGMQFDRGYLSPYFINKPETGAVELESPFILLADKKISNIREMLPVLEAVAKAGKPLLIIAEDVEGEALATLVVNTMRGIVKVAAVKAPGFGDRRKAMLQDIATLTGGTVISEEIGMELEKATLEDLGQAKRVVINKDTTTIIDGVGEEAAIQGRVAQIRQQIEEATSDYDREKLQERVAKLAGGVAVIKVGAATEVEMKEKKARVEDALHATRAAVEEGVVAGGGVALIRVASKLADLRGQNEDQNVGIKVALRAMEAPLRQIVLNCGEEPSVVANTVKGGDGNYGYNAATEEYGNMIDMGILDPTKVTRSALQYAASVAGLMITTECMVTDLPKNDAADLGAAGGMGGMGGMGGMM",
  "test": "SDS-PAGE band intensity + absorption spectrophotometry; purified GroEL14-EGFP population assembled in vivo by coexpression; Coomassie-stained bands of WT GroEL (~60 kDa) and GroEL-EGFP (~90 kDa); absorption at 280 and 489 nm",
  "conditions": "scale: WT subunits per fusion GroEL-EGFP subunit",
  "data": [
    {"substance": "GroEL-EGFP fusion subunit (from UniProt P0A6F5 1-548; P42212 2-238)", "values": [
      {"measurement": "stoichiometry N", "value": 12}
    ]}
  ]
}
